Data reported in patent US5985836A, “Alpha-1 proteinase inhibitor binding peptides” (Bayer Corporation, priority 1998, dated 1999).
Ends that are not written are not given here.

Molecular target: T1, A1PI (Homo sapiens, UniProt P01009)
T1 construct: Human plasma is currently the only approved source of therapeutic AlPI
Assay: A1PI binding on peptide-resin column, injection of 1 mg A1PI in equilibration buffer
Conditions: for % of Total A1PI Eluted by Fraction (Based on Absorbance at 280 nm), 1M NaCl / % of Total A1PI Eluted by Fraction (Based on Absorbance at 280 nm), 2% Acetic Acid / % of Total A1PI Eluted by Fraction (Based on Absorbance at 280 nm), Flowthrough: 1 mg A1PI; for Percent A1PI Eluted by Fraction Based on Absorbance at 280 nm, 1M NaCl / Percent A1PI Eluted by Fraction Based on Absorbance at 280 nm, 2% Acetic Acid / Percent A1PI Eluted by Fraction Based on Absorbance at 280 nm, Flowthrough / Percent A1PI Eluted by Fraction, 1M NaCl / Percent A1PI Eluted by Fraction, 2% Acetic Acid / Percent A1PI Eluted by Fraction, Flowthrough: 1 mg A1PI in equilibration buffer
Protocol: Confirmatory binding assays were performed in a column chromatographic format on a microbore HPLC using individual peptide sequences synthesized directly onto the Toyopearl 650 M Chelate resin which had been modified with Totda followed by an alanine residue (A-Totda-Toyopearl), at a final substitution density of 0.1 mmole/g resin. The resin was packed into 0.4×5 cm columns (Thomson, Springfield, Va.) and tested on the Michrom HPLC system (Michrom BioResources, Auburn, Calif.). The elution program for all trials utilized the following method. The column was pre-equilibrated with equilibration buffer (as above). 1 ml of sample was injected and allowed sufficient time to flowthrough the column using equilibration buffer. The column was then washed with step elutions of 1M NaCl and 3M NaCl in equilibration buffer. The column was exposed to equilibration buffer with 0.1M NaCl. Any remaining protein was eluted with elution buffer (2% by volume glacial acetic acid in water).
A Gilson FC204 fraction collector at the HPLC outlet collected individual eluates for further analysis. Fractions collected from the 2% acetic acid eluates were neutralized with 2M Tris, pH 10.5 to bring the pH to neutrality. The protein samples were reconstituted in equilibration buffer unless otherwise stated. The samples were analyzed by the integration of the absorbance at 280 nm or by immunonephelometry. The specific method of determination is presented for each figure.
Tables 2 and 3 present the elution profiles for 19 sequences based on the injection of 1 mg AlPI in equilibration buffer at 4° C. and 20° C., respectively. The columns were run at a constant flow rate of865 μl/min (413 cm/hr) or 523 μl/min (250 cm/hr). No dependence of the elution profile with flow rate was found. The Percent AlPI Eluted by Fraction represents the amount eluted in the flowthrough, 1M NaCl wash, and 2% acetic acid fractions relative to the total AlPI eluted. The percentages are based on either the integration of the peak areas at […]

[1] = VIWLVR N-terminal point mutations, 4° C.

T1 sequence (P01009 25-418): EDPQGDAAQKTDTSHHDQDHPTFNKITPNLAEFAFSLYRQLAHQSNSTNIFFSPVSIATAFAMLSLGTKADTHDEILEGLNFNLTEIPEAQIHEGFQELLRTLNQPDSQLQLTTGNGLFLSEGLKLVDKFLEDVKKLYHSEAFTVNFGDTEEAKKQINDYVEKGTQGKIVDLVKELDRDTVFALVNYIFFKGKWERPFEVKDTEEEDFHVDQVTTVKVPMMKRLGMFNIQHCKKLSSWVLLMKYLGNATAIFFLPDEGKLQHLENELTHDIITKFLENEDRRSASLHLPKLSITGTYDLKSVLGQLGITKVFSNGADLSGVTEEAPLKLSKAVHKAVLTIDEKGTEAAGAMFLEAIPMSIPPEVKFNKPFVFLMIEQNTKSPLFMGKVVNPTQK

| Substance | % of Total A1PI Eluted by Fraction (Based on Absorbance at 280 nm), 1M NaCl [1] [%] | % of Total A1PI Eluted by Fraction (Based on Absorbance at 280 nm), 2% Acetic Acid [1] [%] | % of Total A1PI Eluted by Fraction (Based on Absorbance at 280 nm), Flowthrough [1] [%] | other results |
| --- | --- | --- | --- | --- |
| N I F L V R: point mutation of VIFLVR, position 1 (NIFLVR) |  |  |  | % of Total A1PI Eluted by Fraction (Based on Absorbance at 280 nm), 1M NaCl (VIFLVR point mutations, 4° C.): 25%; % of Total A1PI Eluted by Fraction (Based on Absorbance at 280 nm), 2% Acetic Acid (VIFLVR point mutations, 4° C.): 75%; % of Total A1PI Eluted by Fraction (Based on Absorbance at 280 nm), Flowthrough (VIFLVR point mutations, 4° C.): 0% |
| NDWLVR: point mutation of VIWLVR on Ala-Totda-Toyopearl (not fully specified (C-terminus)) | 0 | 0 | 100 |  |
| NHWLVR: point mutation of VIWLVR on Ala-Totda-Toyopearl (not fully specified (C-terminus)) | 83 | 17 | 0 |  |
| NNWLVR: point mutation of VIWLVR on Ala-Totda-Toyopearl (not fully specified (C-terminus)) | 13 | 4 | 83 |  |
| NSWLVR: point mutation of VIWLVR on Ala-Totda-Toyopearl (not fully specified (C-terminus)) | 43 | 5 | 52 |  |
| NWKRVR |  |  |  | Percent A1PI Eluted by Fraction Based on Absorbance at 280 nm, 1M NaCl (4° C.): 95%; Percent A1PI Eluted by Fraction Based on Absorbance at 280 nm, 2% Acetic Acid (4° C.): 5%; Percent A1PI Eluted by Fraction Based on Absorbance at 280 nm, Flowthrough (4° C.): 0%; Percent A1PI Eluted by Fraction, 1M NaCl (20° C.): 93%; Percent A1PI Eluted by Fraction, 2% Acetic Acid (20° C.): 7%; Percent A1PI Eluted by Fraction, Flowthrough (20° C.): 0% |
| RRKYLW |  |  |  | Percent A1PI Eluted by Fraction Based on Absorbance at 280 nm, 1M NaCl (4° C.): 92%; Percent A1PI Eluted by Fraction Based on Absorbance at 280 nm, 2% Acetic Acid (4° C.): 8%; Percent A1PI Eluted by Fraction Based on Absorbance at 280 nm, Flowthrough (4° C.): 0%; Percent A1PI Eluted by Fraction, 1M NaCl (20° C.): 82%; Percent A1PI Eluted by Fraction, 2% Acetic Acid (20° C.): 18%; Percent A1PI Eluted by Fraction, Flowthrough (20° C.): 0% |
| SDWLVR: point mutation of VIWLVR on Ala-Totda-Toyopearl (not fully specified (C-terminus)) | 1 | 1 | 98 |  |
| SHWLVR: point mutation of VIWLVR on Ala-Totda-Toyopearl (not fully specified (C-terminus)) | 87 | 13 | 0 |  |
| SNWLVR: point mutation of VIWLVR on Ala-Totda-Toyopearl (not fully specified (C-terminus)) | 95 | 5 | 0 |  |
| SSWLVR: point mutation of VIWLVR on Ala-Totda-Toyopearl (not fully specified (C-terminus)) | 94 | 6 | 0 |  |
| V A F L V R: point mutation of VIFLVR, position 2 (VAFLVR) |  |  |  | % of Total A1PI Eluted by Fraction (Based on Absorbance at 280 nm), 1M NaCl (VIFLVR point mutations, 4° C.): 55%; % of Total A1PI Eluted by Fraction (Based on Absorbance at 280 nm), 2% Acetic Acid (VIFLVR point mutations, 4° C.): 45%; % of Total A1PI Eluted by Fraction (Based on Absorbance at 280 nm), Flowthrough (VIFLVR point mutations, 4° C.): 0%; % of Total A1PI Eluted by Fraction (Based on Absorbance at 280 nm), 1M NaCl (VIFLVR point mutations, 20° C.): 8%; % of Total A1PI Eluted by Fraction (Based on Absorbance at 280 nm), 2% Acetic Acid (VIFLVR point mutations, 20° C.): 92%; % of Total A1PI Eluted by Fraction (Based on Absorbance at 280 nm), Flowthrough (VIFLVR point mutations, 20° C.): 0% |
| V H F L V R: point mutation of VIFLVR, position 2 (VHFLVR) |  |  |  | % of Total A1PI Eluted by Fraction (Based on Absorbance at 280 nm), 1M NaCl (VIFLVR point mutations, 4° C.): 35%; % of Total A1PI Eluted by Fraction (Based on Absorbance at 280 nm), 2% Acetic Acid (VIFLVR point mutations, 4° C.): 65%; % of Total A1PI Eluted by Fraction (Based on Absorbance at 280 nm), Flowthrough (VIFLVR point mutations, 4° C.): 0% |
